Laboratory results taken from publication PMC5819950, “3.3-Å resolution cryo-EM structure of human ribonucleotide reductase with substrate and allosteric regulators bound” (eLife, 2018).

B1: human ribonucleotide reductase large subunit (alpha) (enzyme, UniProt P23921 1-792, looked up)
chain: MHVIKRDGRQERVMFDKITSRIQKLCYGLNMDFVDPAQITMKVIQGLYSGVTTVELDTLAAETAATLTTKHPDYAILAARIAVSNLHKETKKVFSDVMEDLYNYINPHNGKHSPMVAKSTLDIVLANKDRLNSAIIYDRDFSYNYFGFKTLERSYLLKINGKVAERPQHMLMRVSVGIHKEDIDAAIETYNLLSERWFTHASPTLFNAGTNRPQLSSCFLLSMKDDSIEGIYDTLKQCALISKSAGGIGVAVSCIRATGSYIAGTNGNSNGLVPMLRVYNNTARYVDQGGNKRPGAFAIYLEPWHLDIFEFLDLKKNTGKEEQRARDLFFALWIPDLFMKRVETNQDWSLMCPNECPGLDEVWGEEFEKLYASYEKQGRVRKVVKAQQLWYAIIESQTETGTPYMLYKDSCNRKSNQQNLGTIKCSNLCTEIVEYTSKDEVAVCNLASLALNMYVTSEHTYDFKKLAEVTKVVVRNLNKIIDINYYPVPEACLSNKRHRPIGIGVQGLADAFILMRYPFESAEAQLLNKQIFETIYYGALEASCDLAKEQGPYETYEGSPVSKGILQYDMWNVTPTDLWDWKVLKEKIAKYGIRNSLLIAPMPTASTAQILGNNESIEPYTSNIYTRRVLSGEFQIVNPHLLKDLTERGLWHEEMKNQIIACNGSIQSIPEIPDDLKQLYKTVWEISQKTVLKMAAERGAFIDQSQSLNIHIAEPNYGKLTSMHFYGWKQGLKTGMYYLRTRPAANPIQFTLNKEKLKDKEKVSKEEEEKERNTAAMVCSLENRDECLMCGS
notes: human ribonucleotide reductase α (large) subunit, 792 residues; the final cryo-EM model holds two residues of tag and residues 1-743, and the 49-residue C-terminal tail is disordered; The number of copies depends on the nucleotides: α2 with TTP, α6 ring (three α2) with dATP, ATP, dATP + ATP, ClFDP or ClFTP; also called human α
B2: human ribonucleotide reductase β subunit (enzyme)
chain: TKAAAPGVEDEPLLRENPRRFVIFPIEYHDIWQMYKKAEASFWTAEEVDLSKDIQHWESLKPEERYFISHVLAFFAASDGIVNENLVERFSQEVQITEARCFYGFQIAMENIHSEMYSLLIDTYIKDPKEREFLFNAIETMPCVKKKADWALRWIGDKEATYGERVVAFAAVEGIFFSGSFASIFWLKKRGLMPGLTFSNELISRDEGLHCDFACLMFKHLVHKPSEERVREIIINAVRIEQEFLTEALPVKLIGMNCTLMKQYIEFVADRLMLELGFSKVFRVENPFDFMENISLEGKTNFFEKRVGEYQRMGVMSSPTENSFTLDADF
notes: human ribonucleotide reductase β (small) subunit, homodimer β2 with the diferric-tyrosyl radical cofactor; also called β2; human β

Assays:
[1] = biological target: the molecule itself; assay: negative stain EM; α with 0.1 mM TTP, same buffer; 2D class averages
[2] = biological target: the molecule itself; assay: cryo-EM structure; 14 μM α with 0.05 mM dATP, 3 mM ATP, 1 mM CDP in 50 mM HEPES pH 7.6, 15 mM MgCl2, 1 mM EDTA, 5 mM DTT, 50 mM KCl, incubated at 37°C; single-particle map at 3.3 Å
[3] = biological target: B1; assay: negative stain EM; 3 μM α and 3 μM β with 3 mM ATP, 0.05 mM dATP, 1 mM CDP in 50 mM HEPES pH 7.6, 15 mM MgCl2, 50 mM KCl, 5 mM DTT, 37°C for 2 min, diluted ~20 fold; ISAC averages; conditions: both partners purified

| Binder | stoichiometry N [1] | stoichiometry N [2] | stoichiometry N [3] |
| --- | --- | --- | --- |
| B1 | 2 | 6 |  |
| B2 |  |  | 1 β2 per α6 ring |
